In patent US20030087394, “Insulin related transcription factor and uses thereof” (published 2003):

Biological target: RIPE3b1 47-kDa protein (mMafA), affinity purified and SDS-PAGE eluted (UniProt A0A1U7RCQ9 A0A1U7RCQ9:1-361)
Assay: pulldown; streptavidin agarose affinity purification
Conditions: tags: from HIT T-15 nuclear extract; label: 5' biotin top strand
Experimental: This HP fraction contained about 85% of the recovered RIPE3b 1 factor with a 2.5-fold purification. The RIPE3b binding factor was then affinity purified from the HP fraction using a 5′ biotinylated RIPE3b oligonucleotide and streptavidin agarose. The purified fractions were analyzed for binding to a rat insulin II-139 to -101 bp probe by EMSA [FIG. 3, (24)]. The −139 to −101 bp probe contains the RIPE3b and overlapping A2 elements. Five distinct factors (RIPE3b1, RIPE3b2 and three A2 specific complexes) can bind the −139 to −101 bp probe. Thus the −139 to −101 bp probe serves as a good indicator of the purification process. The RIPE3b1 binding activity was eluted in two fractions and was the predominant DNA binding activity in these fractions. RIPE3b1 binding activity was purified 95-fold as compared to the HP fraction […]. The purified fraction was next analyzed on a 10% SDS-PAGE gel along with the starting HIT T-15 nuclear extract and HP fraction. […] The regions corresponding to the individual protein bands were cut; the proteins were then eluted and analyzed for the RIPE3b1 binding activity. […]

RIPE3b1 47-kDa protein (mMafA), affinity purified and SDS-PAGE eluted, sequence (A0A1U7RCQ9 entry or part of it): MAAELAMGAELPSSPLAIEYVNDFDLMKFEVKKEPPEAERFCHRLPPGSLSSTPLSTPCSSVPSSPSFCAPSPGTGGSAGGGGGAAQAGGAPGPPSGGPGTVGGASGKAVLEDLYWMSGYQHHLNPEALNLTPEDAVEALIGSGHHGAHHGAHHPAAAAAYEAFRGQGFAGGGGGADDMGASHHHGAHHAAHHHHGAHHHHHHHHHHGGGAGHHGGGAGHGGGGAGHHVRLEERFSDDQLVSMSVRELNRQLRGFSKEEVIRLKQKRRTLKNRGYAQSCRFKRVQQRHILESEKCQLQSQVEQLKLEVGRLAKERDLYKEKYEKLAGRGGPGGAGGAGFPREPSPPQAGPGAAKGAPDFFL

B1: biotinylated RIPE3b (-126 to -101) dimer (dsDNA)
DNA 1: TGACTGGAAACTGCAGCTTCAGCCCCTCTGGAAACTGCAGCTTCAGCCCCAC
DNA 2: GTGGGGCTGAAGCTGCAGTTTCCAGAGGGGCTGAAGCTGCAGTTTCCAGTCA
B1: binds.
